Residue numbers refer to the chain shown, from its start. Numbers in names are those of the source.
T1: S100A9(C3S), subunit of CP-Ser (human, UniProt P06702 2-114, C3S)
T1 sequence (looked up): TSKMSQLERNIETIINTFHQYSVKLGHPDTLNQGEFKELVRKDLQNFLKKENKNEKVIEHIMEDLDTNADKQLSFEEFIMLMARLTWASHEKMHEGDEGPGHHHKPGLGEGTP

B1: CP-Ser, S100A8(C42S)/S100A9(C3S) heterodimer of human calprotectin (complex)
chain 1: MLTELEKALNSIIDVYHKYSLIKGNFHAVYRDDLKKLLETESPQYIRKKGADVWFKELDINTDGAVNFQEFLILVIKMGVAAHKKSHEESHKE
chain 2: T1 sequence (looked up)
B2: CP-Ser M81A variant, S100A8(C42S)/S100A9(C3S)(M81A) (complex, human)
chain 1: B1 chain 1
chain 2: T1 sequence (looked up) with M80A
B3: S100A8, subunit of native CP (natural protein, human, UniProt P05109 1-93, looked up)
chain: B1 chain 1 with S42C
B4: S100A9, subunit of native CP (natural protein, human, UniProt P06702 2-114, looked up)
chain: T1 sequence (looked up) with S2C
B5: S100A8(C42S), subunit of CP-Ser (natural protein, human, UniProt P05109 1-93, looked up)
chain: B1 chain 1

Columns and labels:
SEC = biological target: the molecule itself; experiment: SEC
[1] = biological target: B4; experiment: cross-linking
cross-linking = biological target: the molecule itself; experiment: cross-linking
[2] = biological target: T1, S100A9(C3S), subunit of CP-Ser; experiment: anion exchange chromatography

B1
binding result (SEC): binds

B2
binding result (SEC): binds

B3
binding result [1]: binds

B4
binding result (cross-linking): binds

B5
binding result [2]: binds
